Source: paper PMC13397619

B1: NLV3 TCR beta chain (CDR3β only) (parent)
chain: ASSPTGGSPSPLH

Variants of: B1
Test: T-Switch: Jurkat TCRβ−/− cells expressing a CDR3 saturation-mutagenesis library, stained with two peptide-HLA-A*02:01 tetramers (original and novel peptide) plus anti-CD3, FACS-sorted into four gates, gDNA sequenced
Details: tetramers 1 µg/mL, 30 min on ice, SP, DP and SW gates expanded about 10 days between rounds ('two to three rounds of selection' in the Methods), unresolved parent, parent is a CDR3 fragment, scale: fold enrichment, numbering: sequential-on-construct, sequence starts at 1
[1] = with both tetramers (double-negative gate, binds neither): HLA-A*02:01 with … and with …, gate DN: OPPOSITE: higher = more of the variant in the gate that binds neither peptide = LESS binding (or no expression; inferred). Fold enrichment of the CDR3 variant in one FACS gate of a two-tetram
[2] = with both tetramers (double-positive gate): HLA-A*02:01 with … and with …, gate DP: higher = more of the variant in the gate that binds both peptides. Fold enrichment of the CDR3 variant in one FACS gate of a two-tetramer stain. SP/DP/SW gates were expanded and re-sorted bef

Variant: […] (CDR3 as printed); A1G derived by comparing it with the table's wild-type CDR3 ASSPTGGSPSPLH
- enrichment [1]: 0.451
- enrichment [2]: 0

Variant: […] (CDR3 as printed); G6P derived by comparing it with the table's wild-type CDR3 ASSPTGGSPSPLH
- enrichment [1]: 1.09
- enrichment [2]: 0

Variant: […] (CDR3 as printed); A1S derived by comparing it with the table's wild-type CDR3 ASSPTGGSPSPLH
- enrichment [1]: 1.25
- enrichment [2]: 0

Variant: […] (CDR3 as printed); G7H derived by comparing it with the table's wild-type CDR3 ASSPTGGSPSPLH
- enrichment [1]: 0.687
- enrichment [2]: 0

Variant: […] (CDR3 as printed); L12Q derived by comparing it with the table's wild-type CDR3 ASSPTGGSPSPLH
- enrichment [1]: 0.615
- enrichment [2]: 0

Variant: […] (CDR3 as printed); L12Y derived by comparing it with the table's wild-type CDR3 ASSPTGGSPSPLH
- enrichment [1]: 1.11
- enrichment [2]: 0

Variant: […] (CDR3 as printed); H13I derived by comparing it with the table's wild-type CDR3 ASSPTGGSPSPLH
- enrichment [1]: 0.602
- enrichment [2]: 0

Variant: […] (CDR3 as printed); L12E derived by comparing it with the table's wild-type CDR3 ASSPTGGSPSPLH
- enrichment [1]: 1.1
- enrichment [2]: 0

Variant: […] (CDR3 as printed); L12M derived by comparing it with the table's wild-type CDR3 ASSPTGGSPSPLH
- enrichment [1]: 0.583
- enrichment [2]: 0

Variant: […] (CDR3 as printed); A1N derived by comparing it with the table's wild-type CDR3 ASSPTGGSPSPLH
- enrichment [1]: 1.07
- enrichment [2]: 0

Variant: […] (CDR3 as printed); G6C derived by comparing it with the table's wild-type CDR3 ASSPTGGSPSPLH
- enrichment [1]: 0.841
- enrichment [2]: 0

Variant: […] (CDR3 as printed); L12V derived by comparing it with the table's wild-type CDR3 ASSPTGGSPSPLH
- enrichment [1]: 0.702
- enrichment [2]: 0

Variant: […] (CDR3 as printed); H13P derived by comparing it with the table's wild-type CDR3 ASSPTGGSPSPLH
- enrichment [1]: 1
- enrichment [2]: 0

Variant: […] (CDR3 as printed); G6D derived by comparing it with the table's wild-type CDR3 ASSPTGGSPSPLH
- enrichment [1]: 0.99
- enrichment [2]: 0

Variant: […] (CDR3 as printed); H13M derived by comparing it with the table's wild-type CDR3 ASSPTGGSPSPLH
- enrichment [1]: 0.598
- enrichment [2]: 0

Variant: […] (CDR3 as printed); H13V derived by comparing it with the table's wild-type CDR3 ASSPTGGSPSPLH
- enrichment [1]: 0.58
- enrichment [2]: 0

Variant: […] (CDR3 as printed); G6W derived by comparing it with the table's wild-type CDR3 ASSPTGGSPSPLH
- enrichment [1]: 1.44
- enrichment [2]: 0

Variant: […] (CDR3 as printed); G6Q derived by comparing it with the table's wild-type CDR3 ASSPTGGSPSPLH
- enrichment [1]: 1.2
- enrichment [2]: 0

Variant: […] (CDR3 as printed); G7W derived by comparing it with the table's wild-type CDR3 ASSPTGGSPSPLH
- enrichment [1]: 1.22
- enrichment [2]: 0

Variant: […] (CDR3 as printed); G6R derived by comparing it with the table's wild-type CDR3 ASSPTGGSPSPLH
- enrichment [1]: 0.796
- enrichment [2]: 0

Variant: […] (CDR3 as printed); H13R derived by comparing it with the table's wild-type CDR3 ASSPTGGSPSPLH
- enrichment [1]: 0.602
- enrichment [2]: 0

Variant: […] (CDR3 as printed); H13Q derived by comparing it with the table's wild-type CDR3 ASSPTGGSPSPLH
- enrichment [1]: 0.592
- enrichment [2]: 0

Variant: […] (CDR3 as printed); G6E derived by comparing it with the table's wild-type CDR3 ASSPTGGSPSPLH
- enrichment [1]: 1.12
- enrichment [2]: 0

Variant: […] (CDR3 as printed); A1Y derived by comparing it with the table's wild-type CDR3 ASSPTGGSPSPLH
- enrichment [1]: 1.15
- enrichment [2]: 0

Variant: […] (CDR3 as printed); A1E derived by comparing it with the table's wild-type CDR3 ASSPTGGSPSPLH
- enrichment [1]: 1.07
- enrichment [2]: 0

Variant: […] (CDR3 as printed); P9D derived by comparing it with the table's wild-type CDR3 ASSPTGGSPSPLH
- enrichment [1]: 0.994
- enrichment [2]: 0

Variant: […] (CDR3 as printed); L12F derived by comparing it with the table's wild-type CDR3 ASSPTGGSPSPLH
- enrichment [1]: 1.49
- enrichment [2]: 0

Variant: […] (CDR3 as printed); P4G derived by comparing it with the table's wild-type CDR3 ASSPTGGSPSPLH
- enrichment [1]: 0.753
- enrichment [2]: 0

Variant: […] (CDR3 as printed); G7Q derived by comparing it with the table's wild-type CDR3 ASSPTGGSPSPLH
- enrichment [1]: 1.09
- enrichment [2]: 0

Variant: […] (CDR3 as printed); G7K derived by comparing it with the table's wild-type CDR3 ASSPTGGSPSPLH
- enrichment [1]: 1.36
- enrichment [2]: 0

Variant: […] (CDR3 as printed); P4M derived by comparing it with the table's wild-type CDR3 ASSPTGGSPSPLH
- enrichment [1]: 0.718
- enrichment [2]: 0

Variant: […] (CDR3 as printed); L12H derived by comparing it with the table's wild-type CDR3 ASSPTGGSPSPLH
- enrichment [1]: 0.844
- enrichment [2]: 0

Variant: […] (CDR3 as printed); P4Y derived by comparing it with the table's wild-type CDR3 ASSPTGGSPSPLH
- enrichment [1]: 0.624
- enrichment [2]: 0

Variant: […] (CDR3 as printed); P4L derived by comparing it with the table's wild-type CDR3 ASSPTGGSPSPLH
- enrichment [1]: 0.459
- enrichment [2]: 0

Variant: […] (CDR3 as printed); G7T derived by comparing it with the table's wild-type CDR3 ASSPTGGSPSPLH
- enrichment [1]: 0.754
- enrichment [2]: 0

Variant: […] (CDR3 as printed); G6A derived by comparing it with the table's wild-type CDR3 ASSPTGGSPSPLH
- enrichment [1]: 0.582
- enrichment [2]: 0

Variant: […] (CDR3 as printed); G7R derived by comparing it with the table's wild-type CDR3 ASSPTGGSPSPLH
- enrichment [1]: 1.17
- enrichment [2]: 0

Variant: […] (CDR3 as printed); H13L derived by comparing it with the table's wild-type CDR3 ASSPTGGSPSPLH
- enrichment [1]: 0.846
- enrichment [2]: 0

Variant: […] (CDR3 as printed); A1V derived by comparing it with the table's wild-type CDR3 ASSPTGGSPSPLH
- enrichment [1]: 0.797
- enrichment [2]: 0

Variant: […] (CDR3 as printed); L12C derived by comparing it with the table's wild-type CDR3 ASSPTGGSPSPLH
- enrichment [1]: 0.764
- enrichment [2]: 0

Variant: […] (CDR3 as printed); G7Y derived by comparing it with the table's wild-type CDR3 ASSPTGGSPSPLH
- enrichment [1]: 0.917
- enrichment [2]: 0

Variant: […] (CDR3 as printed); A1K derived by comparing it with the table's wild-type CDR3 ASSPTGGSPSPLH
- enrichment [1]: 0.994
- enrichment [2]: 0

Variant: […] (CDR3 as printed); L12P derived by comparing it with the table's wild-type CDR3 ASSPTGGSPSPLH
- enrichment [1]: 1.2
- enrichment [2]: 0

Variant: […] (CDR3 as printed); A1M derived by comparing it with the table's wild-type CDR3 ASSPTGGSPSPLH
- enrichment [1]: 1.12
- enrichment [2]: 0

Variant: […] (CDR3 as printed); L12G derived by comparing it with the table's wild-type CDR3 ASSPTGGSPSPLH
- enrichment [1]: 0.618
- enrichment [2]: 0

Variant: […] (CDR3 as printed); L12R derived by comparing it with the table's wild-type CDR3 ASSPTGGSPSPLH
- enrichment [1]: 0.619
- enrichment [2]: 0

Variant: […] (CDR3 as printed); H13G derived by comparing it with the table's wild-type CDR3 ASSPTGGSPSPLH
- enrichment [1]: 0.702
- enrichment [2]: 0

Variant: […] (CDR3 as printed); G7I derived by comparing it with the table's wild-type CDR3 ASSPTGGSPSPLH
- enrichment [1]: 1.05
- enrichment [2]: 0

Variant: […] (CDR3 as printed); G7M derived by comparing it with the table's wild-type CDR3 ASSPTGGSPSPLH
- enrichment [1]: 0.978
- enrichment [2]: 0

Variant: […] (CDR3 as printed); P9H derived by comparing it with the table's wild-type CDR3 ASSPTGGSPSPLH
- enrichment [1]: 0.681
- enrichment [2]: 0

Variant: […] (CDR3 as printed); P4H derived by comparing it with the table's wild-type CDR3 ASSPTGGSPSPLH
- enrichment [1]: 0.553
- enrichment [2]: 0

Variant: […] (CDR3 as printed); H13W derived by comparing it with the table's wild-type CDR3 ASSPTGGSPSPLH
- enrichment [1]: 0.345
- enrichment [2]: 0

Variant: […] (CDR3 as printed); P9F derived by comparing it with the table's wild-type CDR3 ASSPTGGSPSPLH
- enrichment [1]: 0.851
- enrichment [2]: 0

Variant: […] (CDR3 as printed); P9C derived by comparing it with the table's wild-type CDR3 ASSPTGGSPSPLH
- enrichment [1]: 0.869
- enrichment [2]: 0

Variant: […] (CDR3 as printed); P9G derived by comparing it with the table's wild-type CDR3 ASSPTGGSPSPLH
- enrichment [1]: 1.21
- enrichment [2]: 0

Variant: […] (CDR3 as printed); P4C derived by comparing it with the table's wild-type CDR3 ASSPTGGSPSPLH
- enrichment [1]: 0.776
- enrichment [2]: 0

Variant: […] (CDR3 as printed); P9E derived by comparing it with the table's wild-type CDR3 ASSPTGGSPSPLH
- enrichment [1]: 0.929
- enrichment [2]: 0

Variant: […] (CDR3 as printed); L12S derived by comparing it with the table's wild-type CDR3 ASSPTGGSPSPLH
- enrichment [1]: 0.878
- enrichment [2]: 0
